This is an account of results in patent US20220153832A1 (PIONYR IMMUNOTHERAPEUTICS, published 2022).

Experiment [1] has as its target T1, N-terminally polyhistidine tagged human MARCO ECD (147-520), recombinant (human, UniProt Q9UEW3 147-520).
T1 construct: also called PI-RG-3000; recombinant human MARCO; not shown: N-terminal polyhistidine tag
T1 sequence: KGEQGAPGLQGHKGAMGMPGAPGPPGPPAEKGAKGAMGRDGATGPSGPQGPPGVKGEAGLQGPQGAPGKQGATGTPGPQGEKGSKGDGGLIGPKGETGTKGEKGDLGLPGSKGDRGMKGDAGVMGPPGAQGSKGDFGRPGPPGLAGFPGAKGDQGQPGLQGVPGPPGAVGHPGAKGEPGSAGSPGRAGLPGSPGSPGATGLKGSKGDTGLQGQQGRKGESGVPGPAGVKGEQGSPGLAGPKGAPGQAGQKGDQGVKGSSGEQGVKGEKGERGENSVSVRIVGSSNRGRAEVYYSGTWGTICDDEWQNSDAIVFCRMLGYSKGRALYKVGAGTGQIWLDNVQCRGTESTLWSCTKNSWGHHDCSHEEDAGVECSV
The experiment in a line: Biacore; deamidation stress sample (40 C 2 week).

For experiment [2], the target named is T2, Mouse MARCO, full length, on cells (mouse, UniProt Q60754 1-518).
T2 construct: whole, on cells; the cell type is named under assay; also called muMARCO; MuMARCO
T2 sequence (looked up): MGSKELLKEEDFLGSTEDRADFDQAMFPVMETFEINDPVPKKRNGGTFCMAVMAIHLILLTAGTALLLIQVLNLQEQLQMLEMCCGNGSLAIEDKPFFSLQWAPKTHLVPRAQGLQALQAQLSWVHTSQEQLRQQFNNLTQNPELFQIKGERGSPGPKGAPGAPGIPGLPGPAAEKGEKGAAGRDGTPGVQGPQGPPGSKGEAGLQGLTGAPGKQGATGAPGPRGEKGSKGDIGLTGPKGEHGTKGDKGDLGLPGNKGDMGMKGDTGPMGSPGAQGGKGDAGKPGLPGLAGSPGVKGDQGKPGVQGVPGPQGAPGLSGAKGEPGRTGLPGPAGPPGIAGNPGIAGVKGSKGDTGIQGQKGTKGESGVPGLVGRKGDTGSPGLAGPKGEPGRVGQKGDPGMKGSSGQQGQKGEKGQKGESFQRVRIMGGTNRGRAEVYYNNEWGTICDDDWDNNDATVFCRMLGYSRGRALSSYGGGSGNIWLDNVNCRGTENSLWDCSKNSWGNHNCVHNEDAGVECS
Description: flow cytometry, 293T cells expressing mouse MARCO.

B1: PI-3015-AB (antibody, human IgG1, kappa)
heavy: not shown
light: DIQMTQSPSSLSASVGDRVTITCRASEGISNDLAWYQQKPGKAPKLLIYAASRLQSGVPSRFSGSGSGTDYTLTISSMQPEDFATYYCQQSYKYPLTFGQGTKLEIKRTVAAPSVFIFPPSDEQLKSGTASVVCLLNNFYPREAKVQWKVDNALQSGNSQESVTEQDSKDSTYSLSSTLTLSKADYEKHKVYACEVTHQGLSSPVTKSFNRGEC
Turning to B1, the dissociation constant Kd in experiment [1] was determined as 1.24 nM.

B2: PI-HX-3031 (antibody)
heavy: QVQLKESGPGLVQPSQTLSLTCTVSGFSLTSYHVSWVRQPPGKGLEWMGAIWTGGSIAYNSLLKSRLSISRDTSKSQVFLKMNSLQTEDTATYYCARDLSDYYSSYTSFDYWGQGVMVTVSTAETTAPSVYPLAPGTALKSNSMVTLGCLVKGYFPEPVTVTWNSGALSSGVHTFPAVLQSGLYTLTSSVTVPSSTWSSQAVTCNVAHPASSTKVDKKIVPRECNPCGCTGSEVSSVFIFPPKTKDVLTITLTPKVTCVVVDISQNDPEVRFSWFIDDVEVHTAQTHAPEKQSNSTLRSVSELPIVHRDWLNGKTFKCKVNSGAFPAPIEKSISKPEGTPRGPQVYTMAPPKEEMTQSQVSITCMVKGFYPPDIYTEWKMNGQPQENYKNTPPTMDTDGSYFLYSKLNVKKETWQQGNTFTCSVLHEGLHNHHTEKSLSHSP
light: DIQMTQSPASLSTSLGETVSIECLASEGISNDLAWYQQKSGKSPQLLIYAASRLQDGVPSRFSGSGSGTRYSLKISGMQPEDEADYFCQQSYKYPLTFGSGTKLEIKRADAAPTVSIFPPSTEQLATGGASVVCLMNNFYPRDISVKWKIDGTERRDGVLDSVTDQDSKDSTYSMSSTLSLTKADYESHNLYTCEVVHKTSSSPVVKSFNRNEC
notes: Parental rat hybridoma, rat IgG2a
Consider B2, for which the binding result in experiment [2] is given as “no binding”.
